From paper PMC8360651

Test system: VHH 9E (humanized single-domain antibody) (synthetic humanized VHH library NaLi-H1)
Test: ELISA
Conditions: ELISA: biotinylated DNA on avidin plates, 2 h binding, PBS/PBST washes (competition mix at RT). EMSA: PBS, 10% glycerol, RT 2 h, 8% native PAGE in TAE at 4 C. …

AAAATACATTTATATATATCCTAGTCCGACCGCAGGATCCTATAA / TTATAGGATCCTGCGGTCGGACTAGGATATATATAAATGTA [41-mer dsDNA target (BIOTIN-R-CELL + O3-CELL)]
binding signal (pH 5): 82%
K half (serial dilutions of VHH on immobilized dsDNA, relative binding affinity): 200 nM
